Measurements as given in patent US12594347B2, “Nanoparticulate drug delivery systems” (Duke University, priority 2018, dated 2026).
Where two headings read alike, the source gives them in different places.

Assays:
[1] = system: MDA-MB-231 human breast cancer cells; assay: In vitro cytotoxicity, MTS assay, MDA-MB-231 cells; assay type: cell-based; conditions: 72 h incubation, read-out: half-maximal inhibitory concentration (IC50)
Description: In vitro cytotoxicity of the ABDN-CP-PTX versus that of naked CP-PTX and free PTX was determined using the […] MTS assay. […] The MTS assay was repeated twice to ensure validity of results.

[2] = Biodistribution in C26 tumor-bearing mice; assay type: in vivo, Balb/C mice; conditions: mouse, in vivo
Description: Cell culture and tumor inoculation.
Biodistribution. […] At 2 and 24 h after injection, tissues (tumor, muscle, heart, lung, liver, spleen and kidney) were removed, weighed and suspended in 1.0 mL acidified isopropanol (75 mM HCl, 10% water, 90% isopropanol). Tissues were then homogenized using 2 mm diameter zirconia beads and a MiniBeadbeater-1TM (Biospec; Bartlesville, OK) for 2 min at 5,000 beats per minute and were incubated overnight at 4° C. in the dark. The isopropanol extracts were then vortexed, and centrifuged (14,000 RPM, 10 min, 4° C.) and 125 uL of the supernatant was loaded onto a black 96-well plate (BD Biosciences) in duplicate. […] To correct for background tissue fluorescence, tissues were removed from three untreated control mice and were processed similarly. For each tissue, a background (counts per mg tissue) curve was created using 2-fold dilutions of the processed tissues in acidified isopropanol.

[3] = system: C26 murine colon adenocarcinoma cells
Description: C26 murine colon adenocarcinoma cells were seeded (5000 cells/well) in a 96-well plate. After 24 h, cells were treated in triplicate with 3-fold serial dilutions of drugs beginning with 100 uM. After 72 h incubation, 20 μL of CellTiter 96 AQueous™ (Promega; Madison, WI) 3-(4,5-dimethlthiazol-2-yl)-5-(3-carboxymethoxphenyl)-2-(4-sulfophenyl)-2H-tetrazolium (MTS) reagent was added to each well followed by 3 h incubation at 37° C. The absorbance at 490 nm was determined using a Victor3™ microplate reader (Perkin Elmer; Waltham, MA). For each plate, blank wells (with no cells) were defined as 0% viability and wells treated with PBS were defined as 100% viability. The background absorbance at 490 nm was corrected by subtracting the average absorbance of the blank wells from each well. The percent viability was defined as the absorbance of each well normalized to the absorbance of wells treated with PBS. Inhibitory concentration (IC 50) values were calculated using a four-parameter logistic fit in the Prism program (GraphPad Software, San Diego, CA, USA).

Canine pharmacokinetics = assay: Canine pharmacokinetics
Description: Canine pharmacokinetics and toxicities. […] All procedures and protocols involving care, handling, and dosing for this study were reviewed and approved by the Institutional Animal Care and Use Committee (IACUC) at North Carolina State University College of Veterinary Medicine, which is an AAALAC-accredited facility. The animals' health status were monitored daily by the animal technicians and veterinary staff, paying particular attention for signs of gastrointestinal toxicities including vomiting, diarrhea, lethargy, and inappetence. If noted, supportive care was provided. […] 2 mL blood samples were drawn from jugular vein at 40 s, 15 and 30 min, 2, 4, 8, 24, 48, and 72 h after injection, diluted into 400 μL heparinized PBS (1000 UmL^−1). Sample processing and analysis were performed as with murine pharmacokinetics studies.

[4] = Dynamic and static light scattering; assay type: physicochemical; conditions: for % Intensity / Polydispersity / Rh: DLS
Description: Light Scattering. Dynamic and static light scattering measurements were performed using an ALV/CGS-3 goniometer system (Germany). […] To study the effect of albumin binding on micellar self-assembly, mouse albumin was added to the samples at 1:1 albumin-CP molar ratio in PBS. Measurements were obtained at 25° C. and 37° C. for angles between 30-150° at 5° increments with each angle consisting of 3 runs and 10 s each at each run. Hydrodynamic radius (Rh) was determined by dynamic light scattering. The radius of gyration (Rg) and the average molecular weight of the particle (MW) were calculated from the slope and intercept of a partial Zimm plot, respectively, using ALV/Dynamic and Static FIT and PLOT software and according. The micelle aggregation number Nagg, or the number of polypeptide chains per nanoparticle, was calculated by dividing the micelle molecular weight by the molecular weight of the polypeptide monomer.
Size and morphology of CP conjugated micelles. The radius and the aggregation number of the self-assembled micelles were determined, in the presence and absence of albumin, by dynamic and static light scattering at 37° C. using an ALV/CGS-3 goniometer system (Germany). Freeze fracture electron microscopy was performed to visualize the micelles and estimate their radius and morphology.

[5] = molecular target: T1, human serum albumin (HSA) (Homo sapiens, UniProt P02768); assay: Isothermal titration calorimetry (Nano ITC) for PTX conjugates with human albumin; assay type: binding
Description: (§1) For PTX conjugates, ITC was conducted using a Nano ITC system (TA Instruments, Utah, USA). Aliquots of 10 uL of 500 uM albumin in PBS were titrated via a 250 μl syringe into CP-PTX at 50 uM concentration, stirring at 300 rpm at 37° C. For background correction, PBS (in the cell) was titrated with albumin (in the syringe) at the same concentrations and conditions. Background was subtracted from the final curves and the binding and thermodynamic parameters binding constant (KD), number of binding sites (n), and enthalpy (ΔH)—were computed by non-linear fitting to an independent-binding site model using TA Instruments NanoAnalyze software.

[6] = molecular target: T2, mouse serum albumin (MSA) (Mus musculus, UniProt P07724); assay: Isothermal titration calorimetry (Nano ITC) for PTX conjugates with mouse albumin; assay type: binding
T2 sequence (P07724 25-608): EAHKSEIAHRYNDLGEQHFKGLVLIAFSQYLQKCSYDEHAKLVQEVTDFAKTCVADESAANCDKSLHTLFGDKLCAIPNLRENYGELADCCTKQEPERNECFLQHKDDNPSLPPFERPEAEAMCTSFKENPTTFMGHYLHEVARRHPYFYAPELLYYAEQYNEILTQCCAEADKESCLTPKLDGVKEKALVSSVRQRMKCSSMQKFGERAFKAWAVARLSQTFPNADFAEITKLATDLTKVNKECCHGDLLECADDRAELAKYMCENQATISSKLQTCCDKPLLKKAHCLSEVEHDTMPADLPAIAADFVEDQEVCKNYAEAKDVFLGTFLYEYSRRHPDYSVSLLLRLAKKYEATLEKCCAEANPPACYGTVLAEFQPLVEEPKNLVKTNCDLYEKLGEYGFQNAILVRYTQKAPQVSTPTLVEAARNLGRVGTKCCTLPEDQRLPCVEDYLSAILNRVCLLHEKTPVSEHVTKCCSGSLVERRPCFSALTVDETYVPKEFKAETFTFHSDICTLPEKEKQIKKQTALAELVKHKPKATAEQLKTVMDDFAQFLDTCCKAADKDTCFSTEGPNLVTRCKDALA
Description: as §1

[7] = molecular target: T2, mouse serum albumin (MSA); assay: Isothermal titration calorimetry (VP-ITC) of polypeptide carriers and DOX micelles with mouse albumin; assay type: binding; conditions: PBS pH 7.4, 37° C.
Description: (§2) Interaction with albumin. Interaction of CP monomers and micelles with human and mouse albumin was analyzed by isothermal titration calorimetry (ITC).

[8] = Thermal turbidimetry (transition temperature); assay type: physicochemical
Description: Thermal Turbidimetry. Thermal profiles of CPs and CP conjugates were determined by measuring the transition temperature (Tt) over a range of concentrations (5, 10, 25, 50, and 100 uM) in PBS, FBS, and MS using a Cary UV-visible spectrophotometer equipped with temperature controller (Agilent Technologies, CA, USA). […] The transition temperature was defined as the maximum first derivative of the optical density.

[9] = Pharmacokinetics of Alexa488-labeled ABD-ELP and ELP monomers in mice; assay type: in vivo; conditions: tail vein, Balb/C mice, two-compartment model
Description: A single cysteine was added to the C-terminus of polypeptides and was reacted with Alexa 488-maleimide (Life Technologies, Carlsbad, CA, USA). 50 uL Alexa 488-maleimide at 27.75 uM in DMSO was added to the polypeptide solution in the reaction (250 uM) and was allowed to stir for 3 hr at room temperature in the dark. Unbound Alexa488 was then removed by Amicon ultra-15 centrifugal filter units (MWCO 10 kDa, Millipore) and in PBS. Alexa488 concentration and conjugation efficiency was then determined.
125 uL of the supernatant was loaded onto a black 96-well plate (BD Biosciences) in duplicate. Free Alexa488-maleimide solutions at various known concentrations were prepared in heparinized PBS and were loaded onto the plate as standards. Alexa488 fluorescence was measured on a Wallac Victor3 TM microplate reader (Perkin Elmer; Waltham, MA).

[10] = molecular target: T1, human serum albumin (HSA); assay: Isothermal titration calorimetry (VP-ITC) of polypeptide carriers with human albumin; assay type: binding; conditions: PBS pH 7.4, 37° C.
Description: as §2

[11] = dogs, cephalic vein, 27 DOX Equiv/m^−2 BSA or 0.9 mg DOX Equiv/kg BW

Molecule: CC(=O)O[C@H]1C(=O)[C@@]2(C)[C@H]([C@H](OC(=O)c3ccccc3)[C@]3(O)C[C@H](OC(=O)[C@H](O)[C@@H](NC(=O)c4ccccc4)c4ccccc4)C(C)=C1C3(C)C)[C@]1(OC(C)=O)CO[C@@H]1C[C@@H]2O [free PTX, paclitaxel, reference compound]
- IC50 ([1]; MDA-MB-231, printed MDA-MB-213 human breast cancer cells): 9.8 nM

Molecule: COc1cccc2c1C(=O)c1c(O)c3c(c(O)c1C2=O)C[C@@](O)(C(=O)CO)C[C@@H]3O[C@H]1C[C@H](N)[C@H](O)[C@H](C)O1 [DOX, doxorubicin, reference compound]
- accumulation in the spleen (in words) [2]: lower accumulation in the spleen than CP-DOX micelles
- distribution to the heart, lung, kidneys, and muscle (in words) [2]: greater extent
- IC50 [3]: 90 nM
- Apparent distribution volume VD (Canine pharmacokinetics; dog, in vivo): 3.85 ± 0.26 mL/g
- Plasma clearance CL (Canine pharmacokinetics; dog, in vivo): 0.7875 ± 0.0951 mL/h/g
- Distribution half-life β t1/2 (Canine pharmacokinetics; [11]): 3.6 ± 0.5 min
- Elimination rate constant kg (Canine pharmacokinetics; [11]): 0.96 ± 0.13 h⁻¹
- Plasma to tissue rate constant kpt (Canine pharmacokinetics; [11]): 8.51 ± 1.20 h⁻¹
- Elimination half-life α t1/2 (Canine pharmacokinetics; dogs, cephalic vein, 27 DOX Equiv/m^−2 BSA or 0.9 mg DOX Equiv/kg BW, plasma DOX): 2.9 ± 0.8 h

B1: ABD-CP-PTX (conjugate)
chain: LAEAKVLANRELDKYGVSDYYKNLINNAKTVEGVKALIDEILAALPVPGAGVPGAGVPGAGVPGAGVPGAGVPGAGVPGAGVPGAGVPGAGVPGAGVPGAGVPGAGVPGAGVPGAGVPGAGVPGAGVPGAGVPGAGVPGAGVPGAGVPGAGVPGAGVPGAGVPGAGVPGAGVPGAGVPGAGVPGAGVPGAGVPGAGVPGAGVPGAGVPGAGVPGAGVPGAGVPGAGVPGAGVPGAGVPGAGVPGAGVPGAGVPGAGVPGAGVPGAGVPGAGVPGAGVPGAGVPGAGVPGAGVPGAGVPGAGVPGAGVPGAGVPGAGVPGAGVPGAGVPGAGVPGAGVPGAGVPGAGVPGAGVPGAGVPGAGVPGAGVPGAGVPGAGVPGAGVPGAGVPGAGVPGAGVPGAGVPGAGVPGAGVPGAGVPGAGVPGAGVPGAGVPGAGVPGAGVPGAGVPGAGVPGAGVPGAGVPGAGVPGAGVPGAGVPGAGVPGAGVPGAGVPGAGVPGAGVPGAGVPGAGVPGAGVPGAGVPGAGVPGAGVPGAGVPGAGVPGAGVPGAGVPGAGVPGAGVPGAGVPGAGVPGAGVPGAGVPGAGVPGAGVPGAGVPGAGVPGAGVPGAGVPGAGVPGAGVPGAGVPGAGVPGAGVPGAGVPGAGVPGAGVPGAGVPGAGVPGAGVPGAGVPGAGVPGAGVPGAGVPGAGVPGAGVPGAGVPGAGVPGAGVPGAGVPGAGVPGAGVPGAGVPGAGVPGAGVPGAGVPGAGVPGAGVPGAGCGGCGGCGGCGGCGGCGGCGGCGG
- % Intensity ([4]; Concentration 20 μM): 95.4%
- Polydispersity ([4]; Concentration 20 μM): 24.6%
- Rh ([4]; Concentration 20 μM): 39.6 ± 2.2 nm
- % Intensity ([4]; Concentration 40 μM): 96.6%
- Polydispersity ([4]; Concentration 40 μM): 26.6%
- Rh ([4]; Concentration 40 μM): 44.1 ± 4.7 nm
- Nagg ([4]; SLS, 20 μM concentration): 64.5
- RG ([4]; SLS, 20 μM concentration): 42.83 nm
- aggregation (in words) ([4]; body temperature (37° C.)): no aggregates
- n (number of binding sites) [5]: 0.92
- n (number of binding sites) [6]: 0.95
- IC50 ([1]; printed MDA-MB-213 human breast cancer cells): 10.9 nM

B2: ABDN-ELP: ELP scaffold with albumin binding domain ABDN (SEQ ID NO:6) fused to the N-terminus and C-terminal cysteine sequence (protein)
chain: LAEAKVLANRELDKYGVSDYYKNLINNAKTVEGVKALIDEILAALPVPGAGVPGAGVPGAGVPGAGVPGAGVPGAGVPGAGVPGAGVPGAGVPGAGVPGAGVPGAGVPGAGVPGAGVPGAGVPGAGVPGAGVPGAGVPGAGVPGAGVPGAGVPGAGVPGAGVPGAGVPGAGVPGAGVPGAGVPGAGVPGAGVPGAGVPGAGVPGAGVPGAGVPGAGVPGAGVPGAGVPGAGVPGAGVPGAGVPGAGVPGAGVPGAGVPGAGVPGAGVPGAGVPGAGVPGAGVPGAGVPGAGVPGAGVPGAGVPGAGVPGAGVPGAGVPGAGVPGAGVPGAGVPGAGVPGAGVPGAGVPGAGVPGAGVPGAGVPGAGVPGAGVPGAGVPGAGVPGAGVPGAGVPGAGVPGAGVPGAGVPGAGVPGAGVPGAGVPGAGVPGAGVPGAGVPGAGVPGAGVPGAGVPGAGVPGAGVPGAGVPGAGVPGAGVPGAGVPGAGVPGAGVPGAGVPGAGVPGAGVPGAGVPGAGVPGAGVPGAGVPGAGVPGAGVPGAGVPGAGVPGAGVPGAGVPGAGVPGAGVPGAGVPGAGVPGAGVPGAGVPGAGVPGAGVPGAGVPGAGVPGAGVPGAGVPGAGVPGAGVPGAGVPGAGVPGAGVPGAGVPGAGVPGAGVPGAGVPGAGVPGAGVPGAGVPGAGVPGAGVPGAGVPGAGVPGAGVPGAGVPGAGVPGAGVPGAGVPGAGVPGAGVPGAGVPGAGVPGAGVPGAGVPGAGVPGAGVPGAGVPGAGVPGAGCGGCGGCGGCGGCGGCGGCGGCGG
- binding stoichiometry N [7]: 1.12±0.00
- transition temperature ([8]; 100 μM concentration in PBS): 57 °C
- Tt ([8]; ABDN-CP fusions for conjugation with Paclitaxel): 48 °C
- n (number of binding sites) ([5]; listed as ABD-CP): 0.95
- n (number of binding sites) ([6]; listed as ABD-CP): 1.05
- Apparent distribution volume VD [9]: 0.27 ± 0.01 mL/g
- Area under the curve AUC [9]: 80.2 ± 1.9 µM·h
- Distribution half-life β t1/2 [9]: 1.24 ± 0.295 h
- Elimination half-life α t1/2 [9]: 16.8 ± 0.5 h
- Elimination rate constant kg [9]: 0.08 ± 0.00 h⁻¹
- Plasma clearance CL [9]: 0.012 ± 0.000 mL/h/g
- Plasma to tissue rate constant kpt [9]: 0.21 ± 0.06 h⁻¹
- Tissue to plasma rate constant ktp [9]: 0.31 ± 0.07 h⁻¹
- Elimination half-life α t1/2 ([9]; listed as ABDN-CP): 17 h
- binding stoichiometry N [10]: 1.04±0.00
